Data published in paper doi:10.1101/164319.
Values belong to the substance of their own block, whether it stands above or below them.

Molecular target: Arp2/3 complex from strain Arp2cys-Arp3cys, labeled with Alexa 488 and Alexa 594 (Schizosaccharomyces pombe) (UniProt P78774)
Assay: FRET or BRET

Sequence of UniProt P78774 (P78774 whole entry, looked up, one chain of several): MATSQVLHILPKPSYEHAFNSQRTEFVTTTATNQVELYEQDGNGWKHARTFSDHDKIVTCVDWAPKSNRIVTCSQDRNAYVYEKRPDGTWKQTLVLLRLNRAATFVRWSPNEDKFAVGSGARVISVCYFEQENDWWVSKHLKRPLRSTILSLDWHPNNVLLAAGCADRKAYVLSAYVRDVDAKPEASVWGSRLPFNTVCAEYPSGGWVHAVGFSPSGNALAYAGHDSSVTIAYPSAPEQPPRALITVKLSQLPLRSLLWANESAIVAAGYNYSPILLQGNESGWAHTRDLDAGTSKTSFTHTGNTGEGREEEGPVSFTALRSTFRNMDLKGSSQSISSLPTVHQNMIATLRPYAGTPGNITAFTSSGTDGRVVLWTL

increase of mean ETeff at 20 μM CA: 0.06
Substance: S. pombe Wsp1-CA (541SC–574D) (from UniProt O36027 541-574) (domain or fragment)

increase of mean ETeff at 2 μM actin-VCA: 0.12
Substance: VCA crosslinked to an actin monomer (actin-VCA) (from UniProt O36027 497-574; P68139 1-377) (complex)

increase of mean ETeff at 20 μM VCA: 0.13
Substance: S. pombe Wsp1p-VCA (497Q–574D) (from UniProt O36027 497-574) (domain or fragment)
